From PMC4230899, “Diverse allosteric and catalytic functions of tetrameric D-lactate dehydrogenases from three Gram-negative bacteria” (AMB Express, 2014) come the findings set out here.

A word on the stoichiometry N: it is the number of molecules, sites or subunits per partner or assembly. In general, Ki refers to the dissociation constant of the complex between target and ligand, obtained from inhibition or displacement. In general, kcat refers to the maximal rate divided by the concentration of active sites. As a reminder, the kcat/Km is the turnover number divided by the Michaelis constant.

Data set [1] concerns the target NAD-dependent D-lactate dehydrogenase from Pseudomonas aeruginosa (Pseudomonas aeruginosa JCM8532 (=PAO1)). Description: SEC; Superdex 200 (Hiload 16/60), 1 ml of 1 mg/ml protein, 50 mM sodium acetate pH 5.0 with 150 mM NaCl; calibrated with standard proteins; apparent molecular weight against theoretical subunit weight.
The target of data set [2] is T1, ECLDH (Escherichia coli, UniProt P52643).
T1 construct: gene ldhA
T1 sequence (P52643 1-329): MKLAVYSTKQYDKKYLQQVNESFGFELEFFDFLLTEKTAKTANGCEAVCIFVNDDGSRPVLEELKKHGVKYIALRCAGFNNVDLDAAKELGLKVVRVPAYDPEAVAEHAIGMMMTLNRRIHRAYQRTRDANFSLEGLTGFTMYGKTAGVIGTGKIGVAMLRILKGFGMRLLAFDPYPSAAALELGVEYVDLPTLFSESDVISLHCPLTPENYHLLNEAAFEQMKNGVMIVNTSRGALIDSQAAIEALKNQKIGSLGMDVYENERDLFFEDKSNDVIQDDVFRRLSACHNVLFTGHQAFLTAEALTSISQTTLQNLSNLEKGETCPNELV
Description: NADH absorbance at […] nm, activation of pyruvate reduction, Hill fit. The settings on record: slight activator, half-saturation for activation; 7.5 mM pyruvate, 0.1 mM NADH; 50 mM Bicine-NaOH pH 8.0; 30 °C; read-out: S 0.5. Format: biochemical.

For data set [3], the target named is T1, ECLDH. Description: NADH absorbance at […] nm, pyruvate reduction, nonlinear regression. Type of data set: biochemical.
The target of data set [4] is T2, FNLDH (Fusobacterium nucleatum, UniProt Q8RG11).
T2 construct: gene FN0511
T2 sequence (Q8RG11 1-335): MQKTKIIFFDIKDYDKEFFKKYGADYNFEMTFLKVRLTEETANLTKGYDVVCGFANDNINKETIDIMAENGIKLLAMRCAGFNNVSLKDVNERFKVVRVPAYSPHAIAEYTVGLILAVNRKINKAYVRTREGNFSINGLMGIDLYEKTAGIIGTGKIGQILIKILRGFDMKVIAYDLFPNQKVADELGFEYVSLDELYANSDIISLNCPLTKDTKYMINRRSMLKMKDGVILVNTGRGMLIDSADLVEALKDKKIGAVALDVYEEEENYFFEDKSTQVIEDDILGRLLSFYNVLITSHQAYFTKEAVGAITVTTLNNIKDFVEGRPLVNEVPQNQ
The description is as above. Format: biochemical.

The target of data set [5] is T3, PALDH (Pseudomonas aeruginosa, UniProt Q9I530).
T3 construct: gene ldhA
T3 sequence (Q9I530 1-329): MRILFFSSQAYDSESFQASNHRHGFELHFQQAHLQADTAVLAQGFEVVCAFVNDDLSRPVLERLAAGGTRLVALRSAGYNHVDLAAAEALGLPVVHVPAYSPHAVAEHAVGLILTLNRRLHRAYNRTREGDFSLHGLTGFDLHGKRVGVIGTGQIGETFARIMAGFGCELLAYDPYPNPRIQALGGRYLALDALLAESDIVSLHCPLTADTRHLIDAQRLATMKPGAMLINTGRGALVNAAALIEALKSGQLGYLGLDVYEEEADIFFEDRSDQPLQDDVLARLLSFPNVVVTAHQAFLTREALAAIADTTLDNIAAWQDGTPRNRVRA
Described as above. Type of data set: biochemical.

Substrate in data set [6]: CC(=O)C(=O)O
Description: purified protein. Type of data set: biochemical, Escherichia coli. The note with it: 0.1 mM NADH, pH 7.0, 30 °C, no effector, Hill fit.

Substrate in data set [7]: NC(=O)C1=CN([C@@H]2O[C@H](COP(=O)(O)OP(=O)(O)OC[C@H]3O[C@@H](n4cnc5c(N)ncnc54)[C@H](O)[C@@H]3O)[C@@H](O)[C@H]2O)C=CC1
Description: purified protein. Type of data set: biochemical, Escherichia coli. The note with it: saturating pyruvate, pH 7.0, 30 °C, no effector, apparent, varied: cofactor.

Substrate in data set [8]: O=C(O)C(=O)CO
Description: purified protein. Type of data set: biochemical, Escherichia coli. The note with it: 0.1 mM NADH, pH 7.0, 30 °C.

Substrate in data set [9]: O=CC(=O)O
Description: purified protein. The note with it: 0.1 mM NADH, pH 7.0, 30 °C, Hill fit. Format: biochemical, Escherichia coli.

Data set [10] concerns the molecule itself. Description: SEC; Superdex 200 (Hiload 16/60), 1 ml of 1 mg/ml protein, 50 mM HEPES-NaOH pH 8.0 with 150 mM NaCl; calibrated with standard proteins; apparent molecular weight against theoretical subunit weight. (In general: SEC sorts molecules by how far they enter the pores of the column.)
Substrate in data set [11]: CC(=O)C(=O)O
Description: purified protein. Format: biochemical, Pseudomonas aeruginosa. The settings on record: 0.1 mM NADH, pH 7.0, 30 °C, no effector, fit with substrate inhibition.

Substrate in data set [12]: CCC(=O)C(=O)O
Description: purified protein. The settings on record: 0.1 mM NADH, pH 7.0, 30 °C. Type of data set: biochemical, Pseudomonas aeruginosa.

Substrate in data set [13]: NC(=O)C1=CN([C@@H]2O[C@H](COP(=O)(O)OP(=O)(O)OC[C@H]3O[C@@H](n4cnc5c(N)ncnc54)[C@H](O)[C@@H]3O)[C@@H](O)[C@H]2O)C=CC1
Description: purified protein. Type of data set: biochemical, Pseudomonas aeruginosa. The settings on record: saturating pyruvate, pH 7.0, 30 °C, no effector, apparent, varied: cofactor.

Substrate in data set [14]: O=C(O)C(=O)CO
Description: purified protein. Format: biochemical, Pseudomonas aeruginosa. The settings on record: 0.1 mM NADH, pH 7.0, 30 °C, fit with substrate inhibition.

Substrate in data set [15]: O=C(O)CC(=O)C(=O)O
Description: purified protein. The note with it: 0.1 mM NADH, pH 7.0, 30 °C. Format: biochemical, Pseudomonas aeruginosa.

Substrate in data set [16]: CC(=O)C(=O)O
Description: purified protein. Type of data set: biochemical, Fusobacterium nucleatum. The settings on record: 0.1 mM NADH, pH 7.0, 30 °C, no effector.

Substrate in data set [17]: CCC(=O)C(=O)O
Description: purified protein. The settings on record: 0.1 mM NADH, pH 7.0, 30 °C. Type of data set: biochemical, Fusobacterium nucleatum.

Substrate in data set [18]: CCCC(=O)C(=O)O
Description: purified protein. Format: biochemical, Fusobacterium nucleatum. The note with it: 0.1 mM NADH, pH 7.0, 30 °C.

Substrate in data set [19]: NC(=O)C1=CN([C@@H]2O[C@H](COP(=O)(O)OP(=O)(O)OC[C@H]3O[C@@H](n4cnc5c(N)ncnc54)[C@H](O)[C@@H]3O)[C@@H](O)[C@H]2O)C=CC1
Description: purified protein. Type of data set: biochemical, Fusobacterium nucleatum. The note with it: saturating pyruvate, pH 7.0, 30 °C, no effector, apparent, varied: cofactor.

Substrate in data set [20]: O=C(O)CC(=O)C(=O)O
Description: purified protein. The note with it: 0.1 mM NADH, pH 7.0, 30 °C, fit with substrate inhibition. Type of data set: biochemical, Fusobacterium nucleatum.

Take “NAD-dependent D-lactate dehydrogenase from Pseudomonas aeruginosa (enzyme)”: the stoichiometry N in [1] was determined as 3.
For `O=P(O)(O)OC[C@H]1OC(O)(COP(=O)(O)O)[C@@H](O)[C@@H]1O` (stereo partly shown) [FBP], in data set [2], the EC50 amounted to 1.3 mM.
Take `NC(=O)C(=O)O` [Oxamate]: the figures for the Ki in data set [3], in data set [4] and in data set [5] were 20 ± 2 mM, 9.4 ± 0.2 mM and 0.29 ± 0.04 mM, respectively.

B1: NAD-dependent D-lactate dehydrogenase from Escherichia coli (enzyme, E. coli BL21(DE3), UniProt P52643 1-329, looked up)
chain: T1 sequence (P52643 1-329)
notes: gene amplified from genomic DNA with primers from the start codon to the stop codon; theoretical molecular weight printed as 38.5 kDa; No removal of the vector's tag is described; the printed theoretical mass (38.5 kDa) may include the leader of pCold I (surmise); A second peak at the position of an octamer was seen and put down as a likely artefact of overexpression; also called ECLDH; …
With B1, the K0.5 in data set [6] is recorded as 2.6 (0.09) mM; in data set [7], 0.055 (0.004) mM; in data set [8], 12 (0.3) mM; in data set [9], 20 (2) mM. Moreover, the kcat in data set [6] worked out at 410 s⁻¹; in data set [7], 640 s⁻¹; in data set [8], 50 s⁻¹; in [9], 100 s⁻¹. Moreover, the kcat/Km in data set [6] was determined as 160000 M⁻¹ s⁻¹; in data set [7], 1.2e+07 M⁻¹ s⁻¹; in data set [8], 4200 M⁻¹ s⁻¹; in [9] it was 5300 M⁻¹ s⁻¹. The “stoichiometry N” value in data set [10] came out at 4.

B2: PALDH (Pseudomonas aeruginosa PAO1) (protein)
chain: T3 sequence (Q9I530 1-329)
On to B2, for which the K0.5 in [11] is recorded as 0.10 (0.009) mM; in [12], 0.64 (0.01) mM; in [13] it was 0.019 (0.0005) mM; in [14], 3.0 (0.2) mM; in data set [15], 1.7 (0.06) mM. In addition, the kcat in data set [11] worked out at 400 s⁻¹; in data set [12] it was 100 s⁻¹; in data set [13], 310 s⁻¹; in data set [14] it was 420 s⁻¹; in data set [15], 410 s⁻¹. Further, the catalytic efficiency (kcat/Km) is 4e+06 M⁻¹ s⁻¹ in data set [11]; 150000 M⁻¹ s⁻¹ in data set [12]; 1.7e+07 M⁻¹ s⁻¹ in data set [13]; 140000 M⁻¹ s⁻¹ in data set [14]; 230000 M⁻¹ s⁻¹ in data set [15].

B3: NAD-dependent D-lactate dehydrogenase from Fusobacterium nucleatum subsp. nucleatum (enzyme, UniProt Q8RG11 1-335, looked up)
chain: T2 sequence (Q8RG11 1-335)
notes: FN0511 protein (FNLDH), NAD-dependent D-lactate dehydrogenase of Fusobacterium nucleatum subsp. nucleatum JCM14847 (=ATCC25586); gene amplified from genomic DNA with primers from the start codon to the stop codon; theoretical molecular weight printed as 40.0 kDa; No removal of the vector's tag is described; the printed theoretical mass (40.0 kDa) may include the leader of pCold I (surmise); The …
As for B3, the K0.5 in [16] is 0.34 (0.007) mM; in [17], 0.31 (0.006) mM; in data set [18], 0.68 (0.01) mM; in data set [19], 0.022 (0.0005) mM; in [20], 2.5 (0.09) mM. Further, the kcat came to 80 s⁻¹ in [16]; 140 s⁻¹ in data set [17]; 140 s⁻¹ in data set [18]; 98 s⁻¹ in [19]; 80 s⁻¹ in [20]. Besides, the kcat/Km stood at 230000 M⁻¹ s⁻¹ in [16]; 440000 M⁻¹ s⁻¹ in data set [17]; 200000 M⁻¹ s⁻¹ in data set [18]; 4.4e+06 M⁻¹ s⁻¹ in data set [19]; 31000 M⁻¹ s⁻¹ in data set [20]. Moreover, the “stoichiometry N” value in data set [10] was 4.
